Test results taken from patent publication US20140193915, “COMPOSITIONS AND METHODS FOR CUSTOM SITE-SPECIFIC DNA RECOMBINASES” (Monsanto Technology, LLC, published 2014).

T1: pN-TALER IV-1-EE3 (synthetic)
T1 chain: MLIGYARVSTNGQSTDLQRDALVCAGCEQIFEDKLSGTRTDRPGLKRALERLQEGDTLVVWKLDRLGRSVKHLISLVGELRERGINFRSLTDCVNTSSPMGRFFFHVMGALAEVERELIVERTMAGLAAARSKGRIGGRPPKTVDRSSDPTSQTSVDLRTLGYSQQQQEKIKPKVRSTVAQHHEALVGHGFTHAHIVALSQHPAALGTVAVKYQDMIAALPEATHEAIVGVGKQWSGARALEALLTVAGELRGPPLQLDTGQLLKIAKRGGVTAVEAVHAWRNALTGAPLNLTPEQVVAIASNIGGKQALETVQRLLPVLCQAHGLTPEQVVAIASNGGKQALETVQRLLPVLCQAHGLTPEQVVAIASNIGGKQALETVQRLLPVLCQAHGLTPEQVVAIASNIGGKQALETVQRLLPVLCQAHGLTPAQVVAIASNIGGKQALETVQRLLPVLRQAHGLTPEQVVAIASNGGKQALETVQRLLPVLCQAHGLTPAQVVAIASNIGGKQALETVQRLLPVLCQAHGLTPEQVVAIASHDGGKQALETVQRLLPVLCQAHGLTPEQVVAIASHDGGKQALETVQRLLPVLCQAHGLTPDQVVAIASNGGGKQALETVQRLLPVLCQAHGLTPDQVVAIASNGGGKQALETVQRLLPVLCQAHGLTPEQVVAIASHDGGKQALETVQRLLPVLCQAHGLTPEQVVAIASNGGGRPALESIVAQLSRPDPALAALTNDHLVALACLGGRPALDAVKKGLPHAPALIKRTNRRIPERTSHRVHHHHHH

T2: sN-TALER V.2 (synthetic)
T2 chain: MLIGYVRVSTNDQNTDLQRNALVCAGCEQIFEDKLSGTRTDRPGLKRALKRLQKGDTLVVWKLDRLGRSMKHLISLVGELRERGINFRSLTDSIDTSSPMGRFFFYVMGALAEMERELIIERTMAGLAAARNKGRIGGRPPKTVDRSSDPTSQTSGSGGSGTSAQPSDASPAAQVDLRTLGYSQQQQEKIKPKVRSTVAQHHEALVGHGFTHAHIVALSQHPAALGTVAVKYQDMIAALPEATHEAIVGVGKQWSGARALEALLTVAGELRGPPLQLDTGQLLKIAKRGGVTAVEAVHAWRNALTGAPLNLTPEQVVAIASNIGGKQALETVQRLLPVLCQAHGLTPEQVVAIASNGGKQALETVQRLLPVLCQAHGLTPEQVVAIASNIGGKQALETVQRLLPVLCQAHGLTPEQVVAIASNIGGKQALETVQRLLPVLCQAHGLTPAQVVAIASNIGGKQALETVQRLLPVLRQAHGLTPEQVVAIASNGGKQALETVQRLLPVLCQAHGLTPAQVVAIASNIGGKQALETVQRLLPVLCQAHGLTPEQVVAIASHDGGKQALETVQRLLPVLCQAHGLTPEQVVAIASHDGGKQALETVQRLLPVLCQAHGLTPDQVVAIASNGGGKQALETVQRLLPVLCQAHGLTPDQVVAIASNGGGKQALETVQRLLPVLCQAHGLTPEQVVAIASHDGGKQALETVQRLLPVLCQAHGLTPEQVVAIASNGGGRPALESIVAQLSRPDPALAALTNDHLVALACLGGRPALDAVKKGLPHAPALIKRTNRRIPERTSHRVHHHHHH


Legend:
pN-TALER IV-1-EE3 = target: T1, pN-TALER IV-1-EE3; test: cell_activity; E. coli; details: tags: 6-His
sN-TALER V.2 = target: T2, sN-TALER V.2; test: cell_activity; E. coli
Experimental: The co-transformed bacteria were plated on media with chloramphenicol, kanamycin, and X-gal then incubated at 37° C. for 18 to 36 hours. Control samples consisted of transformations using the reporter construct alone. Control transformants were similarly plated. The bacterial transformation protocol was either heat shock or electroporation per standard molecular biology techniques.
For each of these N-TALER chimera expression constructs, from one to three independent clones were selected for plasmid purification. These N-TALER chimera expression constructs were co-transformed with five of the N-TALER reporter constructs, as indicated in Table 15. […] In contrast to the result for pN-TALER N4.2.2, the chimera sN-TALER N4.2.2, with the same truncation point but a specific recombinase catalytic domain, reporters with 20, 24, or 40 bp of TALER central sequence length were efficiently recombined (score of 1) while reporters with 30 or 50 bp of TALER central sequence length were not recombined (score of 5). For the chimera sN-TALER N4.2, reporters with 20, 24, or 40 bp of TALER central sequence length were efficiently recombined (score of 1); the reporter with 30 bp of TALER central sequence length was poorly recombined (score of 3); and the reporter with 50 bp of TALER central sequence length was not recombined (score of 5). For the chimera pN-TALER N4.2, the recombination efficiency on the reporters tested varied from intermediate (scores of 3 and 4) to none (score of 5). […] In contrast to the result for sN-TALER N3.2, the chimera pN-TALER N3.2, with the same truncation point but a permissive recombinase catalytic domain, recombination efficiency on the reporters tested varied from efficient (scores of 1.5, 2, and 3) to none (score of 5). For both chimeras sN-TALER V.2 and pN-TALER V.2, there was efficient recombination (scores of 1, 1.5, and 2) of the 5 N-TALER reporter constructs tested.

Binder	activity (pN-TALER IV-1-EE3) [score]	activity (sN-TALER V.2) [score]
Gin18TALE+0 (dsDNA) DNA 1: AGAAGGTATTTATACCAAAACCATGGTTTACATATAAATACCTTCT DNA 2: AGAAGGTATTTATATGTAAACCATGGTTTTGGTATAAATACCTTCT	3	–
Gin18TALE+1 (dsDNA) DNA 1: AGAAGGTATTTATATCCAAAACCATGGTTTACAATATAAATACCTTCT DNA 2: AGAAGGTATTTATATTGTAAACCATGGTTTTGGATATAAATACCTTCT	–	1
